What was measured:
Human Thrombin = Human Thrombin (Homo sapiens, UniProt P00734); settings: fifth round selected peptides; 1 hour incubation +/- Human Thrombin 0.1 unit/ml; anti-FLAG ELISA OD450
Protocol: The values represent ((OD450 nm reading after incubation with thrombin)/(OD450 nm reading after incubation without thrombin)) expressed as a percentage. 100% indicates complete protection from thrombin cleavage.
Recovered DNA from the fifth round of selection was amplified using PCR, purified and digested with NotI and NcoI. The DNA was then ligated into a similarly digested M13 gpIII phagemid vector and transformed into E. coli XL-1 blue cells, and plated on 2% glucose, 2×TY, 100 μg/ml ampicillin plates. Individual colonies were grown for the production of phage particles as previously described (Odegrip et al Proc. Natl. Acad. Sci USA 101 2806-2810 (2004)). NUNC Maxisorp plates were coated with 100 ng/well of anti-FLAG M2 antibody in PBS overnight at 4° C. ELISA assays were performed with bound phage being incubated for 1 hour in 2% BSA in PBS, +/−Human Thrombin (0.1 unit/ml). The assay was developed with SureBlue TMB peroxidase substrate (Insight Biotechnology, Middlesex, UK) and read at 450 nm.

trypsin = target: T1, trypsin (Bos taurus, UniProt P00760); assay: Incubation with trypsin-agarose, then ELISA against anti-FLAG antibody (trypsin resistance); assay type: in vitro ADME; settings: two hours at 25° C.
T1 construct: purchased SIGMA-Aldrich or Novagen
T1 sequence (P00760 24-246): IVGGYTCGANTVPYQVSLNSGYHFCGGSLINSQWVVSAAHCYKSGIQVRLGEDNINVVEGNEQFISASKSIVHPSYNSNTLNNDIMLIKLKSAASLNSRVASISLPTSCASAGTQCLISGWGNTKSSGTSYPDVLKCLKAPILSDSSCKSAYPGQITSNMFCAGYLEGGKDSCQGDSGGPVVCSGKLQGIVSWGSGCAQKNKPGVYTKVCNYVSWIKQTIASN
Protocol: A. Unselected library peptides incubated with trypsin. B. Unselected library peptides incubated without trypsin. C. Round five thrombin selection peptides incubated with trypsin. D. Round five thrombin selection peptides incubated without trypsin.
Trypsin cleaves after R or after K, thus there are two trypsin sites fixed in the FLAG epitope and thrombin substrate sequence. Even partial resistance to trypsin is surprising as no selection for trypsin resistance was performed and the FLAG epitope is susceptible to trypsin cleavage. Such resistance is observed in round five peptides selected for thrombin resistance, but not in the un-selected library peptides (FIG. 3).

Sequence | Thrombin resistant (Human Thrombin) | Trypsin resistant (trypsin)
HCVHEPQTKHES [SEQID 029] | resistant | resistant
HGHSPSDNANTR [SEQID 028] | resistant | resistant
ITPPDNSHTPDE [SEQID 027] | resistant | resistant
PSCPNKQDPTHD [SEQID 030] | resistant | resistant
